Results published in patent US20240207418A1, “LINKERS, DRUG LINKERS AND CONJUGATES THEREOF AND METHODS OF USING THE SAME” (ProfoundBio US Co., priority 2021, published 2024).

Key:
human FOLR1 protein = target: T1, human FOLR1 protein (Homo sapiens, UniProt P15328); assay: ELISA binding to human FOLR1 protein
T1 construct: His tag; purchased ACRO FO1-H52H1
Method: (§1) The ability of the antibodies to bind to human FOLR1 protein or to cross binding to cynomolgus FOLR1 protein was tested by standard ELISA. Briefly, the human FOLR1 (ACRO-FO1-H52H1) or cynomolgus FOLR1 protein (ACRO, F01-C52H8) with a His tag was diluted to 5 μg/ml with a carbonic acid coating solution at pH 9.6 and 100 μL antigen was coated in each well of 96-well microtiter plate at 4° C. overnight. The liquid in the wells was discarded and the wells were washed three times with PBST. The wells were then blocked with 4% skim milk powder-PBS (Sigma, D5652-1 L), using 300 μL/well and the plates incubated in 37° C. for 1 hour. The liquid in the wells was discarded, and the well were washed three times with PBS. Samples were added using 100 μL/well; PBS was added in the control group. The plates were incubated at 37° C. for 1 hour. The liquid in the wells was discarded and the wells were washed three times with PBST. HRP-goat anti-human IgG (Sigma, 118885-2ML) was added (with 1:5000 dilution, 100 μL/well) and the plates were incubated in 37° C. for 1 hour. Then the liquid in the wells was discarded, and the wells were washed five times with PBST. A TMB solution was added using 100 μL/well. 2M H2SO4 was added to each well using 50 μL to terminate the reaction after […]. The A450 values were read using a microplate reader.

cynomolgus FOLR1 protein = assay: ELISA cross binding to cynomolgus FOLR1 protein
Method: as §1

T1 sequence (P15328 25-234): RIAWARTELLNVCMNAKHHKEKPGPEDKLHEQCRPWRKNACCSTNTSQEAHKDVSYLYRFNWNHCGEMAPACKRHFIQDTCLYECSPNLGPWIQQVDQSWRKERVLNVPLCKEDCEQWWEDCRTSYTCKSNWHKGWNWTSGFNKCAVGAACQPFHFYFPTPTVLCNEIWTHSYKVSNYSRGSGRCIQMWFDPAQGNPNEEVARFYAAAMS

OD450, Target: Human FOLR1 Protein His Tag, Diluted 1x (human FOLR1 protein; supernatant diluted 1x): 0.811 OD450
OD450, Target: Human FOLR1 Protein His Tag, Diluted 5x (human FOLR1 protein; supernatant diluted 5x): 0.382 OD450
OD450, Target: Human FOLR1 Protein His Tag, Diluted 25x (human FOLR1 protein; supernatant diluted 25x): 0.163 OD450
Target binding, coating with Human FOLR1 Protein (human FOLR1 protein; transfection supernatant, ELISA): 2.3860 OD450
OD450, Target: Cynomolgus/Rhesus macaque FOLR1, Protein, His Tag, Diluted 1x (cynomolgus FOLR1 protein; supernatant diluted 1x): 1.354 OD450
OD450, Target: Cynomolgus/Rhesus macaque FOLR1, Protein, His Tag, Diluted 5x (cynomolgus FOLR1 protein; supernatant diluted 5x): 1.111 OD450
OD450, Target: Cynomolgus/Rhesus macaque FOLR1, Protein, His Tag, Diluted 25x (cynomolgus FOLR1 protein; supernatant diluted 25x): 0.924 OD450
B1: F40: anti-FOLR1 antibody clone: "Clone F40 has a different HCDRs and LCDRs, and with different HFR and LFR" (antibody, V domains shown)
VH: EVQLLESGGGVVQPGRSLRLSCAASGFTFSSYAMHWVRQAPGKGLEWVAVISYDGSNKYYADSVKGRFIISRDNSKNTVYLQMNSLRAEDTAVYYCARPTYVFTYTGSSFDYWGQGTQVTVSS
VL: DIQVTQSPSSLSASLGDTVSITCRASRGLTDSVAWYQQKPGQAPKLLIYAASTLQSGVPSRFGGSGSGSYFTLTITSLQPEDVATYYCQNYKSAPWTFGQGTKVEIK
